Measurements as given in paper PMC7228753 (Science Advances, 2020).

What was measured:
IRF5 [1] = biological target: T1, IRF5 (Homo sapiens, UniProt Q13568); format: cell-based
IRF5 [2] = biological target: T1, IRF5; format: cell-based; remark: listed apart in the source
endogenous IRF5 = endogenous IRF5 (Homo sapiens, UniProt Q13568); format: cell-based
IRF5 [3] = biological target: T1, IRF5; format: cell-based; remark: listed apart in the source
[4] = biological target: wild-type (WT) IRF5, tagged with either His or biotin at the C terminus (human); experiment: FRET or BRET
[5] = biological target: IRF5 [change], tagged with either His or biotin (human); experiment: FRET or BRET

Row | Molecule | effect on R848-induced IRF5 homodimerization (IRF5 [1]) | inhibition of R848-induced IRF5 nuclear translocation in CD19+ B cells (IRF5 [2]) | in-cell FRET signal with TRITC-IRF5 (endogenous IRF5) | inhibition of R848-induced IRF5 nuclear translocation in CD14+ monocytes (IRF5 [3]) | Kd [4] | IC50 [5]
1 | Ac-IKVMWPILFIIKLVHSDKKI-NH2 [IRF5-CPP8] | Neither of these two peptides inhibited | neither peptide provided IRF5-specific inhibition | minimal FRET signal | neither peptide provided IRF5-specific inhibition | – | –
2 | IRF5-CPP9: Negative control for IRF5-CPP5; lacks the IRF5-specific sequences (MANLGYWLLALFVTMWTDVGLCKKRPKP) | Neither of these two peptides inhibited | neither peptide provided IRF5-specific inhibition | minimal FRET signal | neither peptide provided IRF5-specific inhibition | – | –
3 | wild-type (WT) IRF5, tagged with either His or biotin at the C terminus (natural protein) | – | – | – | – | 4.21 µM | –
4 | Ac-IRLQISNPYLKFIPLKRAIWLIK-NH2 [IRF5-CPP1] | – | – | – | – | – | > 75 µM
